Article PMC12459221, “A flexible, allosteric loop regulates protein activity and rewires electrostatics” (Protein Science : A Publication of the Protein Society, 2025)

Substrate: C=C(O[C@@H]1C=C(C(=O)O)C=C[C@H]1O)C(=O)O
Experiment: enzyme kinetics, triplicate
Format: biochemical, Saccharomyces cerevisiae
Settings: pH 6.5 or 7.5, 22 °C, 150 mM NaCl
Excerpt: enzyme kinetics, triplicate on chorismate mutase (CM) | a similar mutation (E219A)

B1: chorismate mutase (CM) (Saccharomyces cerevisiae S288C; E219A) (protein)
chain: MDFTKPETVLNLQNIRDELVRMEDSIIFKFIERSHFATCPSVYEANHPGLEIPNFKGSFLDWALSNLEIAHSRIRRFESPDETPFFPDKIQKSFLPSINYPQILAPYAPEVNYNDKIKKVYIEKIIPLISKRDGDDKNNFGSVATRDIECLQSLSRRIHFGKFVAEAKFQSDIPLYTKLIKSKDVEGIMKNITNSAVEEKILERLTKKAEVYGVDPTNASGERRITPEYLVKIYKEIVIPITKEVEVEYLLRRLEE
notes: TEV-cleavable tagged CM in pET21a, E. coli BL21*(DE3); 60 kDa homodimer
  Km: 600 ± 200 µM
